Experimental data: article PMC3608554

Biological target: PLCg2 (UniProt P16885)
Assay: anti-PLCg2 IP, anti-BANK1 blot
Conditions: reference: wild type; sites Y484,Y488

BANK1 (from UniProt Q8NDB2) Y484F/Y488F was tested, and the “binding against the reference” value was “weaker”.
